From patent US20230235040A1

T1: hu-IL-36β (human IL-36β, N-terminally truncated active form R5-E157) (human)
T1 sequence: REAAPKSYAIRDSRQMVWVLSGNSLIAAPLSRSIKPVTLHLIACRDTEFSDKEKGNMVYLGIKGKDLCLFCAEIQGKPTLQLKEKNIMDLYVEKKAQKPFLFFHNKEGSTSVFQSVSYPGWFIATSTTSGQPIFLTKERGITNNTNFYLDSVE


What was measured:
Assay in all cases: ELISA, yeast Fab supernatant, anti-Fab-HRP
[1] = molecular target: hu-IL-36α (human IL-36α, N-terminally truncated active form K6-F158) (human) (UniProt Q9UHA7)
[2] = molecular target: hu-IL-36γ (human IL-36γ, N-terminally truncated active form S18-D169) (human) (UniProt Q9NZH8)
[3] = molecular target: T1, hu-IL-36β (human IL-36β, N-terminally truncated active form R5-E157) (human)

Chain of hu-IL-36γ (human IL-36γ, N-terminally truncated active form S18-D169) (human) (Q9NZH8 18-169 limits assumed): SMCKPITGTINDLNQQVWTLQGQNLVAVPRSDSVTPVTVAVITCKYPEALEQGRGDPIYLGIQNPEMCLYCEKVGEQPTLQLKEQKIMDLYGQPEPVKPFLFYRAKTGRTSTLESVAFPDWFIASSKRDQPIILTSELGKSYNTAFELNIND
Chain of hu-IL-36α (human IL-36α, N-terminally truncated active form K6-F158) (human) (Q9UHA7 6-158 limits assumed): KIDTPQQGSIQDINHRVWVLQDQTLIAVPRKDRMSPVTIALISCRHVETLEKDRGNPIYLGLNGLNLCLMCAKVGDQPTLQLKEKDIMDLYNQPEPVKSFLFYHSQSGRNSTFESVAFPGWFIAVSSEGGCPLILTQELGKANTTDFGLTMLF

| Binder | ELISA OD450 [1] [OD450] | ELISA OD450 [2] [OD450] | ELISA OD450 [3] [OD450] |
| --- | --- | --- | --- |
| mAb8.0 Fab (yeast clone culture supernatant) (Fab, V domains shown) VH: QVQLVQSGAEVKKPGSSVKVSCKASGGTFSNYAISWVRQAPGQGLEWMGGILPILGTVDYAQKFQGRVTITADESTSTAYMELSSLRSEDTAVYYCAREPWYRLGAFDVWGQGTLVTVSS VL: DIQMTQSPSSLSASVGDRVTITCRASQTIYKYLNWYQQKPGKAPKLLIYAASSLQSGVPSRFSGSGSGTDFTLTISSLQPEDFATYYCQQYSSIPYTFGQGTKVEIK | 0.0698 | 0.073 | – |
| mAb7.0 Fab (yeast clone culture supernatant) (Fab, V domains shown) VH: QVQLVESGGGVVQPGRSLRLSCAASGFTFSSYGMHWVRQAPGKGLEWVAVISYGGSERYYADSVKGRFTISRDNSKNTLYLQMNSLRAEDTAVYYCAREPWYSSRGWTGYGFDVWGQGTLVTVSS VL: EIVLTQSPGTLSLSPGERATLSCRASQSVSSNYLAWYQQKPGQAPKLLIYSASSLQSGVPSRFSGSGSGTDFTLTISSLQPEDFATYYCQQTYSYPPTFGQGTKVEIK | 0.0604 | 0.0724 | – |
| mAb2.0 Fab (yeast clone culture supernatant) (Fab, V domains shown) VH: QLQLQESGPGLVKPSETLSLTCTVSGGSISTSSYYWGWIRQPPGKGLEWIGSIYYTGNTYYNPSLKSRVTISVDTSKNQFSLKLSSVTAADTAVYYCARVRYGVGVPRYFDPWGQGTLVTVSS VL: QSVLTQPPSVSGAPGQRVTISCTGSSSNIGAHYDVHWYQQLPGTAPKLLIYGNDNRPSGVPDRFSGSKSGTSASLAITGLQAEDEADYYCQSYDYSLSGYVFGGGTKLTVL | – | – | 0.0604 |
| mAb1.0 Fab (yeast clone culture supernatant) (Fab, V domains shown) VH: QVQLVESGGGVVQPGRSLRLSCAASGFSFSAYAMHWVRQAPGKGLEWVAVISYDGTNEYYADSVKGRFTISRDNSKNTLYLQMNSLRAEDTAVYYCARGIRIFTSYFDSWGQGTLVTVSS VL: QSVLTQPPSVSGAPGQRVTISCTGSSSNIGAHYDVHWYQQLPGTAPKLLIYSNNNRPSGVPDRFSGSKSGTSASLAITGLQAEDEADYYCQSYDYSLRGYVFGGGTKLTVL | – | – | 0.0523 |
| mAb6.0 Fab (yeast clone culture supernatant) (Fab, V domains shown) VH: QLQLQESGPGLVKPSETLSLTCTVSGGSITSSNYYWGWIRQPPGKGLEWIGSIDYTGSTYYNPSLKSRVTISVDTSKNQFSLKLSSVTAADTAVYYCARGKYYETYLGFDVWGQGTLVTVSS VL: QSVLTQPPSVSGAPGQRVTISCTGSSSNIGAGYDVHWYQQLPGTAPKLLIYGNTNRPSGVPDRFSGSKSGTSASLAITGLQAEDEADYYCQSYDISLSGWVFGGGTKLTVL | 0.0638 | 0.0656 | – |
| mAb4.0 Fab (yeast clone culture supernatant) (Fab, V domains shown) VH: QLQLQESGPGLVKPSETLSLTCTVSGGSIGSRSYYWGWIRQPPGKGLEWIGSIHYSGTTYYNPSLKSRVTISVDTSKNQFSLKLSSVTAADTAVYYCARVAPSYPRVFDYWGQGTLVTVSS VL: QSVLTQPPSVSGAPGQRVTISCTGSSSNIGAGYDVHWYQQLPGTAPKLLIYGNRNRPSGVPDRFSGSKSGTSASLAITGLQAEDEADYYCQSYDYSLRVYVFGGGTKLTVL | – | – | 0.0513 |
| mAb3.0 Fab (yeast clone culture supernatant) (Fab, V domains shown) VH: QLQLQESGPGLVKPSETLSLTCTVSGGSISSTSYYWGWIRQPPGKGLEWIGSIHYSGNTYYNPSLKSRVTISVDTSKNQFSLKLSSVTAADTAVYYCARVHYGGYIPRRFDHWGQGTLVTVSS VL: QSVLTQPPSVSGAPGQRVTISCTGSSSNIGAGYDVHWYQQLPGTAPKLLIYGNTNRPSGVPDRFSGSKSGTSASLAITGLQAEDEADYYCQSYDYSLRGYVFGGGTKLTVL | – | – | 0.11 |
